Measured values reported in patent US5763590A (Vertex Pharmaceuticals, Inc., priority 1994, dated 1998).
Where two headings read alike, the source gives them in different places.

Key:
hFKBP52 = target: T1, hFKBP52 (Homo sapiens, UniProt Q02790); assay: Inhibition of peptidyl-prolyl cis-trans isomerase (PPIase) activity of hFKBP52; format: biochemical
T1 construct: The hFKBP52 open reading frame (ORF) was expressed in E. coli with a vector (pQE8, Qiagen Inc.); histidine tag (pQE8) (N, cleaved yes); Factor Xa cleavage site (Ile-Glu-Gly-Arg) (N, cleaved yes); made in house; host or cells: E. coli XA90
T1 sequence (Q02790 1-459): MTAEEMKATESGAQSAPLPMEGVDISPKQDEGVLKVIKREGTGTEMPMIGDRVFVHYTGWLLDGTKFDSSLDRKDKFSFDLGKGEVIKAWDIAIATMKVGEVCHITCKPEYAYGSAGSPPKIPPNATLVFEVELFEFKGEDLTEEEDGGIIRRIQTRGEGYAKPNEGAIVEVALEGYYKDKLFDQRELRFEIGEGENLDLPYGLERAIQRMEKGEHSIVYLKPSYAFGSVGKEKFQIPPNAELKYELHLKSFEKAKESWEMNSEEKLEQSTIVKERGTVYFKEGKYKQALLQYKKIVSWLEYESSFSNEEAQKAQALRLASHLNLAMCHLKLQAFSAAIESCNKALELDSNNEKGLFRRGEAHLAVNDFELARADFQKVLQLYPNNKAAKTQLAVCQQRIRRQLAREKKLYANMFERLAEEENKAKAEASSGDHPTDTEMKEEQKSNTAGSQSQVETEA
Protocol: The peptidyl-prolyl isomerization rate was determined by coupling isomerization of a prolyl-containing peptide to trans substrate hydrolysis by chymotrypsin (Fisher, G., et al., Nature 337:476-478 (1989)). The assay was performed according to Harrison and Stein (Biochem., 29:3813-3816 (1980) with modifications described by Park S. T., et al., J. Biol. Chem. 267:3316-3324 (1992). The tetrapeptide substrate succinyl-Ala-P1-Pro-Phe-p-nitroanilide, where P1=Leu, was used to determine specific activity and inhibition constants, and a series of peptide substrates with related structures (P1=Phe, Val, Ala, Gly, Glu or Lys) was used to determine substrate specificity. Protein concentrations of rhFKBP52 stock solutions were determined by a Coomassie Blue binding assay (Bradford, M., Anal. Biochem., 72:248-254 (1976)). FKBP52 (60 nM final) was added to a reaction mixture containing substrate (27 μM final) in 0.1M Tris-HCl, pH 7.8 at 15° C., and the solution was incubated in a 2 ml cuvette for 5 min at 15° C. […] For measurement of substrate specificity, the final FKBP52 concentration was adjusted so the Kobs was at least four-fold higher than knon-enz. Inhibition data were fit to an equation for tight-binding competitive inhibitors using KineTic™ software (BioKin, Ltd.) running on a Macintosh IIcx computer.

[1] = cited from earlier work
[2] = PPIase catalysis of the isomerization of tetrapeptide substrates (chymotrypsin-coupled assay); format: biochemical
Protocol: As described in detail in Example 2, the assay of Harrison and Stein (Harrison, R. K. and R. L. Stein, Biochemistry 29:3813-3816 (1990)) can be used to measure peptidyl prolyl cis-trans isomerization (PPIase) activity of FKBP52.
The peptidyl-prolyl isomerization rate was determined by coupling isomerization of a prolyl-containing peptide to trans substrate hydrolysis by chymotrypsin (Fisher, G., et al., Nature 337:476-478 (1989)). The assay was performed according to Harrison and Stein (Biochem., 29:3813-3816 ([…]) with modifications described by Park S. T., et al., J. Biol. Chem. 267:3316-3324 (1992). The tetrapeptide substrate succinyl-Ala-P1-Pro-Phe-p-nitroanilide, where P1=Leu, was used to determine specific activity and inhibition constants, and a series of peptide substrates with related structures (P1=Phe, Val, Ala, Gly, Glu or Lys) was used to determine substrate specificity. Protein concentrations of rhFKBP52 stock solutions were determined by a Coomassie Blue binding assay (Bradford, M., Anal. Biochem., 72:248-254 (1976)). FKBP52 (60 nM final) was added to a reaction mixture containing substrate (27 μM final) in 0.1M Tris-HCl, pH 7.8 at 15° C., and the solution was incubated in a 2 ml cuvette for 5 min at 15° C. (950 μl final) before adding chymotrypsin (100 μg ml^-1 final) to start reaction. For measurement of substrate specificity, the final FKBP52 concentration was adjusted so the Kobs was at least four-fold higher than knon-enz. Inhibition data were fit to an equation for tight-binding competitive inhibitors using KineTic™ software (BioKin, Ltd.) running on a Macintosh IIcx computer.

Molecule: CO[C@H]1C[C@@H]2CC[C@@H](C)[C@@](O)(O2)C(=O)C(=O)N2CCCC[C@H]2C(=O)O[C@H]([C@H](C)C[C@@H]2CC[C@@H](O)[C@H](OC)C2)CC(=O)[C@H](C)/C=C(\C)[C@@H](O)[C@@H](OC)C(=O)[C@H](C)C[C@H](C)/C=C/C=C/C=C/1C [rapamycin]
- Ki (hFKBP52): 8 nM

Molecule: hFKBP12: recombinant human FK506 binding protein of Mr about 11,800, used as comparator PPIase
- Specific activity at 15° C. ([1]; Substrate P1 = Ala, data from Park et al. 1992): 310000 M⁻¹ s⁻¹
- Specific activity at 15° C. ([1]; Substrate P1 = Leu (Suc-Ala-Leu-Pro-Phe-pNA), data from Park et al. 1992, listed as FKBP12): 4.3e+06 M⁻¹ s⁻¹
- Specific activity at 15° C. ([1]; Substrate P1 = Leu (Suc-Ala-Leu-Pro-Phe-pNA), data from Park et al. 1992): 4.3e+06 M⁻¹ s⁻¹
- Specific activity at 15° C. ([1]; Substrate P1 = Phe, data from Park et al. 1992): 2e+06 M⁻¹ s⁻¹
- Specific activity at 15° C. ([1]; Substrate P1 = Val, data from Park et al. 1992): 900000 M⁻¹ s⁻¹

Molecule: recombinant human FKBP52 (Mr 52,000 FK506 binding protein) (enzyme)
- Specific activity at 15° C. (PPIase, chymotrypsin-coupled assay) (Suc-Ala-Ala-Pro-Phe-pNA): 26000 M⁻¹ s⁻¹
- Specific activity at 15° C. (PPIase, chymotrypsin-coupled assay) (Suc-Ala-Leu-Pro-Phe-pNA): 390000 M⁻¹ s⁻¹
- Specific activity at 15° C. (PPIase, chymotrypsin-coupled assay) (Suc-Ala-Phe-Pro-Phe-pNA): 73000 M⁻¹ s⁻¹
- Specific activity at 15° C. (PPIase, chymotrypsin-coupled assay) (Suc-Ala-Val-Pro-Phe-pNA): 39000 M⁻¹ s⁻¹

B1: hFKBP52: Mr 52,000 FK506 binding protein; recombinant human form expressed in E. coli, 459 residues (SEQ ID NO: 26) (protein)
chain: T1 sequence (Q02790 1-459)
- Specific activity at 15° C. ([2]; Substrate P1 = Ala): 26000 M⁻¹ s⁻¹
- Specific activity at 15° C. ([2]; Substrate P1 = Leu (Suc-Ala-Leu-Pro-Phe-pNA)): 390000 M⁻¹ s⁻¹
- Specific activity at 15° C. ([2]; Substrate P1 = Leu (Suc-Ala-Leu-Pro-Phe-pNA), listed as FKBP52): 390000 M⁻¹ s⁻¹
- Specific activity at 15° C. ([2]; Substrate P1 = Phe): 73000 M⁻¹ s⁻¹
- Specific activity at 15° C. ([2]; Substrate P1 = Val): 39000 M⁻¹ s⁻¹
- Specific activity relative to recombinant human FKBP12 (rhFKBP12) ([2]; substrate Suc-Ala-Leu-Pro-Phe-pNA, 15° C.): approximately 10%
